Assay: yeast display, Sf9 membrane polyspecificity reagent, FACS + sequencing; frameworks hold sequencing errors
How it was run: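 Synthetic nanobody libraries on Saccharomyces cerevisiae BJ5465 were galactose-induced for 36–48 hours, stained 1 hour at 4 °C with 10% biotinylated, detergent-solubilized Sf9 membrane reagent and enriched on streptavidin microbeads. FACS then separated cells into low and high (top ~1%) gates by anti-HA (expression) and streptavidin (reagent binding) fluorescence. Genes were colony-PCR amplified, MiSeq 2 × 250 sequenced and CDR-length filtered. A clone's polyreactivity label is that of its gate of origin.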

Row | Sequence | polyreactivity (PSR sort gate)
1 | QVQLVESGGGLVQAGGSLRLSCAASGSIFQWNAMGWYRQAPGKERELVAAISTRGGRTYYADSVKGRFTISRDNAKNTDYLQMNSLKPEDTAVYYCAKQYGSYGRYYKYYYWGQGTQVTVSS | high polyreactivity
2 | QVQLVESGGGLVQAGGSLRLSCAASGRTFYPYAMGWYRQAPGKERELVAAISSGGGSTYYADSVKGRFTISRDNAKNTVYLQMNSLKPEDTAVYYCAKRAGWAGWYYRNDYWGQGTQVTVSS | high polyreactivity
3 | QVQLVESGGGLVQAGGSLRLSCAASGRISGGYAMGWYRQAPGKERELVAVISSGGRTYYADSVKGRFTISRDNAKNTVDLHMNSLKPEVTGVYYCNAYTWGIVDNYDYWGQGTQVTVSS | low polyreactivity
4 | QVQLVESGGGLVQAGGSLRLSSAASGYIFDLNAMGRYRQAPGKERELVAAISTGGGTYYADSVKGRFTISRDNAKNTVYLQMNSLKPEDTAVYYCAADWGYWYAEYDYWGQGTLVTVSS | low polyreactivity
5 | QVQLVESGGGLVQAGGSLRLSCAASGSTFTRYAMGWYRQAPGKERELVAAITRSGGGTYYADSVKGRFTSSRDNAKNTVYLQLNSLKPEDTAVYYCAKDIVFYGSPGYGYWGQGTQVTVSS | high polyreactivity
6 | QVQLVESGGGLVQAGGSLRLSCAASGSIIKYYAMGWYRQAPGKERELVAAISWRGGRTYADSVKGRFTISRDNAKNTVYLQLNSLKPEDTAVYYCNARAPQGYGTHRSKYRWGPMGYWGQGTQVTVSS | high polyreactivity
7 | QVQLVESGGGLVQAGGSLRLSCAASGSIFVWYAMGWYRQAPGKERELVAAISSSGDNTYYADSVKGRFTISRDNAKNTVYLQMNSLKPEDTAVYYCAAKSYWGQGTQVTVSS | high polyreactivity
8 | QVQHVESGGGLVQAGGSLRLSCAASGSTIRRNAMGWYRQAPGKERELVAAISGTGGRTYYADSVKGRFTISRDNAKNTVYLQMNSLKPEDTAVYYCNAAGRFYWGQGTQVTVSS | high polyreactivity
9 | QVQLVESGGGFVQAGGSLRLSCAACGSTFATYGMGWYRQAPGKERELVADITSGGSTYYADSVKGRFTISRDNAKNTVYLQMNSLKPEDTAVYSCNAPYGGPYYIQYDYWGQGTQVTVSS | low polyreactivity
10 | QVQLVESGGGLVQAGGSLRVSCAASGFIFYGYTMGWYREAPGKERELVARISRRGGSTYYADSVKGRFTISRDNAKNTVYLQMNSLKPEDTAVYYCATRALGHFDWGQGTQVTVSS | low polyreactivity
11 | QVQLVESGGGLVQAGGSLRLTCAASGSTFAYYAMRWYRQAPGTERELVAVINGITGSTYYADSVKGRFTISRDHAKNTVYLQMNSLKPEDTAVYYCNADYAVVTDEGDYWGQGTQVTVSS | low polyreactivity
12 | QVQLVESGGGLVQAGGSLRLSCAASGSTFAEYAMGWYREAPGKERELVADITWSGGSTYYADSVKGRFTISRDNAKNTVYLQMNSLKPDDTAVYYCYFWPVFYDFYLYGYWGQGTQVTVSS | low polyreactivity
13 | QVQLVESGGGLVQAGGSLRLSCAASGRIFIIYAMGWYRQAPGKERELVAAITSGGGSTRYADSVKGRFPISRDNAKNTVYLQMNSLKPEDTAVYYCAAARITRGRRYDYWGQGTQVTVSS | high polyreactivity
14 | QVQLVESGGGLVQAGASLRLSCAASGLIFYFYAMGWYRQAPGKERELVATIRSSTGSTYYADSVKGRFTISRDNAKNTVYLQMNSLKPEDTAVYYCNAGIKRYEWYQFDYWGQGTQVSVSS | low polyreactivity
15 | QVQLVESGGGLVQAGGSLRLSCAASGGTFGYNVMGWYRQAPGKERELVAAISYSVGGTYYADSVKGRFTISRDNAKNTVYLQMNSLKPEDTEVYYCAATGRRRTYSEYEYWGQGTQVTVSS | high polyreactivity
16 | QVQLVESGGCLVQAGGSLRLSCAASAFIFVGNDMGLYRQAPGKEREFVAAISSGGTTNYADSVKGRFTISRDNAKNTVYLQMNSLKPEDTAVYYCGADYDYRQGYDSVHLDYWVQGTQVTVSS | low polyreactivity
17 | QVQLVESGGGLVQAGGSLRLSCAASGSIFGYNVMGWYRQAPGKERELVAAITYSGGSTYYADSVKGRFTISRDNAKNTVYLQMNSQKQEDTAVYYCAKVTGRRFPAYGYDHWGQGTQVTVSS | high polyreactivity
18 | QVQLVESGGGLVQAGGSLRLSCAASGRTFFENAMGWYRQAPGKEREFVAAISYNGGSTYYADSVKGRFTISRDNAKNTVYLQMNSLKPEDTAVYYCAAEADGLRYDDNYWGQCTQVTVSS | low polyreactivity
19 | QVQLVESWGGLVHAGGSLRLSCAASGSTFAGYAMGWYRKATGTERELVATITYSGGSTYYADSVKGRFTISRDNAKNTVYLQMNSLKTEDTAVYYCAKKASYWWGYEYWGQGTQVTVSS | low polyreactivity
20 | QVQLEDSGGGLVQAGGSLGLSCAASGITFSVYDMGWYRQAPGKERQLVAAISWSGGSTYYADSVKGRFTISRDNAKNTVFLQMNSLKPDDTAVYYCAAEVDYWYELYDYWGLGTQVTVSS | high polyreactivity

Row | Sequence | polyreactivity (PSR sort gate)
21 | QVQLVESGGGLVQAGGSHRLSCAASGYIFRYSTMGWYRQAPGKERELVAVITRGGSTYYADSVKGRFTISRDNAKNTVYLQMTSLNPEDTAVYYCAAVRTKVWRGPEMDYWGQCTQVTVSS | high polyreactivity
22 | QVQLVESGGGVVQAGGSLRLSCAASGSIFNRYAMGWYRQAPGKERELVAATSSGGSTYYADSVKGRFTISRDNAKNTVYLQMNSLKPEDTAVYYCAARSRYRSTPPTYDYWGQGTQVTVSS | low polyreactivity
23 | QVQLVESGGGLVQAGGRLRLSCAASGSIFERNVMGWYRQAPGKERELVAAITSGGSTNYADSVKGRFTISRDNAKNTVYLQMNSLKPEETAVYYCAADVPYRSRFYRYRLSGGDYWGQGSQVTVSS | low polyreactivity
24 | QVQLVESGGGLVQAGGSLRLSCAASGSTFPWNAMGWYRQAPGKERELVAAINYGNGSTYYADSVKGRFTISRDNAKNTVYLQMNSLKPVDTAVYYCNADFTGTRSDSVTPEYEYWGQGTQVTVSS | low polyreactivity
25 | QVQLVESGGGLVQAGGSLRLSCAASGSIFVRNAMGWYRQAPGKEREFVATITSSGGTTYYADSVKGRFTISRDNAKNTVYLQMNSLKPDDTAVYYCNADAGWYDWVYYVGRDYWGQGTQVTVSS | low polyreactivity
26 | QVQLVESGGRLFQAGGSLRLSCAASGRIFYHNALGWYRQAPGKERELVADNASGGSTYYADSVKARFTISRDNAKNTVYLQMNSLKPEDTAVYYCAAEDEDSIFPFPYGAGSLFDFWGQGTQVTVSS | low polyreactivity
27 | QVQIVESGGGLVQAGGSLRLSCDASGSIFNYNAMGWYRQAPGKEREFVAAINQGGTSTYYADSVKGRFTISRDNAKNTVYLQINSLKPEDTAVYYCAALITVYRGSYEYWGQGTQVTVSS | low polyreactivity
28 | QVQLVESGGGLVQAGGSLRLSCAASGSTFGYYAMGWYRQAPGKERELVAAITSNDGSTNYADSVKGRFTISRDNAKKTVYLQMNSLKPEDTAVYYCNARSFVAVISSFDYWGQGTQVTVSS | low polyreactivity
29 | QVQLVESGGGLVQAGGSLRLSCAASGSTFQSNAMGWYRQAPGKERELVAAISSSAGTTFYADSVKGRFTISRDNAKNTVYLQMNSLKPEDTAVYYCAKKDFYFAPSPGYYRSRDYWGQGTQVTVSS | low polyreactivity
30 | QVQLVESWGGLVQAGGSLRLSCAASGFTFVSYAMGWYRQAPGKERELVAAISKRGGSTSYADSVKGRFTISRDNAKNTVYLQMNSLKPEDTAVYYCYNRSYAWSPHVDYWGQGTQVTVSS | high polyreactivity
31 | QVQLVESGGGLVQAGGSLRLSCAASGFIFGIYDMGWYRQAPGKERELVAAITYSGSSTYYADSVKGRFTISRDNAKNTVYLQMNSLKQEDTAVYYCNKTPWDWDYWDPEYYYWGQGTQVTVSS | high polyreactivity
32 | QVQLVESGGGLVQAGGSLRLSCAASGSIFWSYAMGWYRQAPGKEREFVAAIRGRGGNTYADSVKGRFTISRDNAKNTVYLQMNSLKPEDTAVYYCAAPLLRDLRSPYSYNYWGQGTQVTVSS | low polyreactivity
33 | QVQLVESGGGLVQAGGSLRLSCAASGRIFYYYAMGWYRQAPGKERELVAVISRGGRTKYADSVKGRFTISRDNAKNTVYLQMNSLKPEDTAVYYCAVGLSGASSGMGYWGQGTQVTVSS | high polyreactivity
34 | QVHLEESGRRLVQAGGSLRLSCAASGSIFSYYAMGWSRPAPGKEWELVAAISQSGGSTYYADSVKGRFTISGDNAKNTVDLQMNSLKPEDTAVYSCNAVARHTRAKYGSWGQGTQVTVSS | low polyreactivity
35 | QVQLVESGGGLVQAGGSLRLSCAASGYTFRYYAMGWYRQAPVKERELVARITGRAGSTYYADSVKGRFTISRDNAKNTVYLQMNSLKPEDTAVYYCAASIREGFYWGQGTQVTVSS | high polyreactivity
36 | QVQLVESGGGLVQAGGSLRLSCAASGSTFENYVRGWYRQAPGKERELFAAISRGGGSTHYADSVKGRFTISRDNAKITVYLQKKSLKPEDTAVYYCAARYQTYVGSSSISTGIYYYWGQGTQVTVSS | low polyreactivity
37 | QVQLVESGGGLVQAGGSLRLSCAASGFIFNAYTMGWYRKAPGKERELFAAISRRGSSTYYADSVKGRFTISRDNAMNTVYLQMNSLKPEDTAVYYCNTRLYARDDSDFDYWGQGPQVTVSS | high polyreactivity
38 | QVQLVESGGGLVQAGGSLRLSCAASGFTFYIYAMGWYRQAPGKERELVAAISSGGGRTYYADSVKGRFTISRDNAKNTVYLQMNSLKPEDTAVYYCAARGRAFSYNNYGSDYWGQGTQVTVSS | high polyreactivity
39 | QVQLVESGGGLVQAGGSLRLSCAASGSIFAYNVMGWYRQAPGKEREFVAAISSGGRTTYADSVKGPFTISRDNAKNTVYLQMNSLKAEDTAVYYFNAYFLVHYRRLRPYEYWGQGTQVTVSS | low polyreactivity
40 | QVQLVESGGGLVQAGGRLRLSGAASGLIFTTYAMGWSRQAPGKVRELVAAISSSGDSTYYADSVKGRFTISRDNAKNTVYLQMNSLKPEDTAVYYRAARYYYRGYEFGYWGQGTQVTVSS | high polyreactivity

Source: the nanobody polyreactivity screen of Harvey et al. (2022)
